Assay: label from the status in PepcDB records

Sequence | protein production
MIGLMIRVAGQLGRYARLLPATAGMVLVLQVAAQADVLTINGGAKFTNYPMVTLGINAALHGGTVQAMRFSIDDSTWTDWEPVAASKRFKLTEPLSLSFYDVFLQFQQDGVAVPDPPYPAAIVYDDLIDTGFFGGQGVALLGGTGSDRGKGVVVQPDGKLLVVGTVEQAAGNTDIVLWRLTAQGEPDTGFGVQGSVVIDAGTADRAAGVALQGDGKILVLGTVGSATTAWEVRRYDSAGVLDTSFGTGGKYQEGASGANEAGNLLVQPDGRIVIIGSRDVAGAKKIQVIRLTATGVLDSAFNGNTGYYRPNLPGNSFGNGVALQADGKILLVGTYANPSGETDLFVQRLKTDGTLDNFNDGLNNFFMAGDAGNDEGLGIAVQPDGKIVVVGAYQWGAGDTDIWVLRLNENGTRDNDFNAPVGDYKDGDVYNDRAEALVIQPDGKIVVVGSFGYATDTDILVFRLNADGTTDNTIYNFYGFYTINSGDDEGQGVALQPDGNIVLVSTFTREEGDTDIHVHRIFGRKETLSVSTTGGGSVADDLGAFTWVDLSGEGDYLQGDSVALTAAPATGYVFTGWGGDCAGTSPVCTVTMDGAKNVTASFSLDRPAAPTGLSGVPGNGTAGISWTASQESGITGYKVYYGITSGNYATPDPVGTTPAHVISGLMNGVTYYIAVSVLKNGVEGPKSAEITVTPGINLSVTVVGTGGGTVSSAPGGISCLDGSGCSAVFNAAPVVLSATPSAGSIFAGWSGACSGTDGCTVTQYGPVAVTATFTKMPPVKLTAGTTSYYSTIAEAYAACIGGTSCTIETQATELAGNVTLANAIAVLFKGGYDATFSSSPGLTTLQGVVTVGRGSLTAQNVVIR | failed
MTSGGNSIEPSVVAEAEKMLFCYQYDQTITISITSSADPCPLCNGGFLDEYVDPNPNPIPNLILPMSDPISSRFSFIPVMDFTNPSFLGESMEPQSTQQQLNAFDPNQLSDQANPLAGNHGDYFFGRGLEDLI | failed
MKRTVALAASLSLLWLLLSGYWHDPLLLGFGLLSVGAVVALSLRMGIVDAEGVPLRQIPGLITYLPWLAWQVVLSAITVARIVLSPKLSISPTLAAIPAAPKTAIGQVILANSITLTPGTLSLDLDDGAVLVHGLCAAGIDDLMTGEMGRRVAALDGRGAP | failed
MDTMRDRFAPVVSRLLDEDPRVVVVLAEIGKDGFTEARRRHPDRVINVGIREQLLVGAGAGLALTGLRPVLHTFASFLVERPFEQVKLDLGHQDVGAVLVSAAASFDWPAGGYTHMSPGDVALLDTLDGWTMHVPGHPDEAETLLRHAVAAGDDKVYVRLSVQSNARRRAVDGERFLTVREGRAGVVVAVGPLLDPVLEATEGLDVTVLYATTVRPFDAVALRRATETAGTDVVLVEPYLAGTSTAAANDALHDVPHRVLGLGVGRPELRRYGSVDEHMAAHGLDAGSLRQRIAEFAGAPARA | failed
MNNKDLWIKEEIIWSEHKCIRFAAGGYEALIIPDVGGNVVELKDTNKGVTILRTPKKDLKFEDFKNRPQVYGLPVLFPPNRIDDGTFKLGDKTYKFPINEAKNNNYIHGFIKNSKWTVHKKKIDQDKALVEVVFDFTKENEAYKYFSHEFQFKLSYELSSKGLKQTTSVVNLSSEEMPLSVGYHSAFNVPFIEGSEDSNCRVKISIDKFWKQDSRNLPTGESFAPTGEQKEYLENGVAVASHPIESLFSLKDIDVNGKTFRGACIEDASKNTRVVYEMSSEYKYLVIWNDMGDKKYACIEPQTSIINSPNVKLDRSVSGFKTLKPNESWSGVCKLYIENM | not failed
MSLTGNAQAATIADPSTLVVDTVGPVLTIGLNRPKKRNALNDGLMAALKDCLTDIPDQIRAVVIHGIGDHFSAGLDLSELRERDATEGLVHSQTWHRVFDKIQYCRVPVIAALKGAVIGGGLELACAAHIRVAEASAYYALPEGSRGIFVGGGGSVRLPRLIGVARMADMMLTGRVYSAAEGVVHGFSQYLIENGSAYDKALELGNRVAQNAPLTNFAVLQALPMIAEANPQTGLLMESLMATVAQSDQEAKTRIRAFLDHKTAKVREGHHHHHH | not failed
MNANENVSDDRFAEMVWEAVSGGATLKDVHGIPQDMMEGLYAHAYDFYHKGRLDEAETFFRFLCIYDFYNPDYIMGLAAVCQLKKQFQKAVDLYAVAFALSKNDYRPVFFTGQCQLFMRKAAKARQCFELVCEQSGDESLRDKAQVYLDSLQEAEAEQSRQQEKEQA | failed
SNPNDLPDFPEHEYAATQQVGEGVINGDLYLTSASGAIQKGTNTKVALEPATSYMKAYYAKFGNLDAAKRDPDVQPPVLDPRRATYVREATTDQNGRFDFDHIPNGTYYISSELTWSAQSDGKTITEGGTVTKLVTVSGSQPQKVLLTR | not failed

Reference: a protein production outcome set (Wang et al. 2014)
